Assay results from patent US20240270846A1 (published 2024).

These binders were tested against T1, CD3 epsilon homodimer protein (UniProt P07766 23-126) (assay: SPR Biacore T200, antibody over immobilised CD3e homodimer;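 also: CD3 epsilon homodimer amine-coupled on a CM4 chip, run at 25 °C in HBS-EP+, Z = bound amount of each single-residue H chain variant over that of the parent antibody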).
T1 construct: also called CD3 (CD3 epsilon)
T1 sequence (P07766 23-126): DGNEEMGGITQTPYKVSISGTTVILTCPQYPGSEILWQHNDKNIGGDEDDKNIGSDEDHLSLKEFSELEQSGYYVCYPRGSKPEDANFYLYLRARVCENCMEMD

| Binder | ratio of amounts bound (Z=Y/X vs CE115HA000) |
| --- | --- |
| CE115HA000 Q50S one-arm antibody (antibody, human IgG1, kappa, L234A L235A, N297A, name in Kabat numbering, one-arm antibody) heavy: QVQLVESGGGVVQPGRSLRLSCAASGFTFSNAWMHWVRQAPGKGLEWVASIKAKSNNYATYYAESVKGRFTISRDDSKNSLYLQMNSLKTEDTAVYYCRYVHYGAYYGVDAWGQGTTVTVSSASTKGPSVFPLAPSSKSTSGGTAALGCLVKDYFPEPVTVSWNSGALTSGVHTFPAVLQSSGLYSLSSVVTVPSSSLGTQTYICNVNHKPSNTKVDKKVEPKSCDKTHTCPPCPAPEAAGGPSVFLFPPKPKDTLMISRTPEVTCVVVDVSHEDPEVKFNWYVDGVEVHNAKTKPREEQYASTYRVVSVLTVLHQDWLNGKEYKCKVSNKALPAPIEKTISKAKGQPREPQVYTLPPSRCELTKNQVSLSCAVKGFYPSDIAVEWESNGQPENNYKTTPPVLDSDGSFFLVSKLTVDKSRWQQGNVFSCSVMHEALHNHYTQKSLSLSPDYKDDDDK EPKSSDKTHTCPPCPAPELLGGPSVFLFPPKPKDTLMISRTPEVTCVVVDVSHEDPEVKFNWYVDGVEVHNAKTKPREEQYNSTYRVVSVLTVLHQDWLNGKEYKCKVSNKALPAPIEKTISKAKGQPREPQVCTLPPSRDELTKNQVSLWCLVKGFYPSDIAVEWESNGQPENNYKTTPPVLDSDGSFFLYSKLTVDKSRWQQGNVFSCSVMHEALHNRYTQKSLSLSP light: DIVMTQSPLSLPVTPGEPASISCRSSQSLVHSNRNTYLHWYQQKPGQAPRLLIYKVSNRFSGVPDRFSGSGSGTDFTLKISRVEAEDVGVYYCGQGTQVPYTFGQGTKLEIKRTVAAPSVFIFPPSDEQLKSGTASVVCLLNNFYPREAKVQWKVDNALQSGNSQESVTEQDSKDSTYSLSSTLTLSKADYEKHKVYACEVTHQGLSSPVTKSFNRGEC | 0.24 |
| CE115HA000 R16Q one-arm antibody (antibody, human IgG1, kappa, L234A L235A, N297A, name in Kabat numbering, one-arm antibody) heavy: QVQLVESGGGVVQPGQSLRLSCAASGFTFSNAWMHWVRQAPGKGLEWVAQIKAKSNNYATYYAESVKGRFTISRDDSKNSLYLQMNSLKTEDTAVYYCRYVHYGAYYGVDAWGQGTTVTVSSASTKGPSVFPLAPSSKSTSGGTAALGCLVKDYFPEPVTVSWNSGALTSGVHTFPAVLQSSGLYSLSSVVTVPSSSLGTQTYICNVNHKPSNTKVDKKVEPKSCDKTHTCPPCPAPEAAGGPSVFLFPPKPKDTLMISRTPEVTCVVVDVSHEDPEVKFNWYVDGVEVHNAKTKPREEQYASTYRVVSVLTVLHQDWLNGKEYKCKVSNKALPAPIEKTISKAKGQPREPQVYTLPPSRCELTKNQVSLSCAVKGFYPSDIAVEWESNGQPENNYKTTPPVLDSDGSFFLVSKLTVDKSRWQQGNVFSCSVMHEALHNHYTQKSLSLSPDYKDDDDK EPKSSDKTHTCPPCPAPELLGGPSVFLFPPKPKDTLMISRTPEVTCVVVDVSHEDPEVKFNWYVDGVEVHNAKTKPREEQYNSTYRVVSVLTVLHQDWLNGKEYKCKVSNKALPAPIEKTISKAKGQPREPQVCTLPPSRDELTKNQVSLWCLVKGFYPSDIAVEWESNGQPENNYKTTPPVLDSDGSFFLYSKLTVDKSRWQQGNVFSCSVMHEALHNRYTQKSLSLSP light: DIVMTQSPLSLPVTPGEPASISCRSSQSLVHSNRNTYLHWYQQKPGQAPRLLIYKVSNRFSGVPDRFSGSGSGTDFTLKISRVEAEDVGVYYCGQGTQVPYTFGQGTKLEIKRTVAAPSVFIFPPSDEQLKSGTASVVCLLNNFYPREAKVQWKVDNALQSGNSQESVTEQDSKDSTYSLSSTLTLSKADYEKHKVYACEVTHQGLSSPVTKSFNRGEC | 0.9 |
| CE115HA000 Q50Y one-arm antibody (antibody, human IgG1, kappa, L234A L235A, N297A, name in Kabat numbering, one-arm antibody) heavy: QVQLVESGGGVVQPGRSLRLSCAASGFTFSNAWMHWVRQAPGKGLEWVAYIKAKSNNYATYYAESVKGRFTISRDDSKNSLYLQMNSLKTEDTAVYYCRYVHYGAYYGVDAWGQGTTVTVSSASTKGPSVFPLAPSSKSTSGGTAALGCLVKDYFPEPVTVSWNSGALTSGVHTFPAVLQSSGLYSLSSVVTVPSSSLGTQTYICNVNHKPSNTKVDKKVEPKSCDKTHTCPPCPAPEAAGGPSVFLFPPKPKDTLMISRTPEVTCVVVDVSHEDPEVKFNWYVDGVEVHNAKTKPREEQYASTYRVVSVLTVLHQDWLNGKEYKCKVSNKALPAPIEKTISKAKGQPREPQVYTLPPSRCELTKNQVSLSCAVKGFYPSDIAVEWESNGQPENNYKTTPPVLDSDGSFFLVSKLTVDKSRWQQGNVFSCSVMHEALHNHYTQKSLSLSPDYKDDDDK EPKSSDKTHTCPPCPAPELLGGPSVFLFPPKPKDTLMISRTPEVTCVVVDVSHEDPEVKFNWYVDGVEVHNAKTKPREEQYNSTYRVVSVLTVLHQDWLNGKEYKCKVSNKALPAPIEKTISKAKGQPREPQVCTLPPSRDELTKNQVSLWCLVKGFYPSDIAVEWESNGQPENNYKTTPPVLDSDGSFFLYSKLTVDKSRWQQGNVFSCSVMHEALHNRYTQKSLSLSP light: DIVMTQSPLSLPVTPGEPASISCRSSQSLVHSNRNTYLHWYQQKPGQAPRLLIYKVSNRFSGVPDRFSGSGSGTDFTLKISRVEAEDVGVYYCGQGTQVPYTFGQGTKLEIKRTVAAPSVFIFPPSDEQLKSGTASVVCLLNNFYPREAKVQWKVDNALQSGNSQESVTEQDSKDSTYSLSSTLTLSKADYEKHKVYACEVTHQGLSSPVTKSFNRGEC | 0.25 |
| CE115HA000 R16E one-arm antibody (antibody, human IgG1, kappa, L234A L235A, N297A, name in Kabat numbering, one-arm antibody) heavy: QVQLVESGGGVVQPGESLRLSCAASGFTFSNAWMHWVRQAPGKGLEWVAQIKAKSNNYATYYAESVKGRFTISRDDSKNSLYLQMNSLKTEDTAVYYCRYVHYGAYYGVDAWGQGTTVTVSSASTKGPSVFPLAPSSKSTSGGTAALGCLVKDYFPEPVTVSWNSGALTSGVHTFPAVLQSSGLYSLSSVVTVPSSSLGTQTYICNVNHKPSNTKVDKKVEPKSCDKTHTCPPCPAPEAAGGPSVFLFPPKPKDTLMISRTPEVTCVVVDVSHEDPEVKFNWYVDGVEVHNAKTKPREEQYASTYRVVSVLTVLHQDWLNGKEYKCKVSNKALPAPIEKTISKAKGQPREPQVYTLPPSRCELTKNQVSLSCAVKGFYPSDIAVEWESNGQPENNYKTTPPVLDSDGSFFLVSKLTVDKSRWQQGNVFSCSVMHEALHNHYTQKSLSLSPDYKDDDDK EPKSSDKTHTCPPCPAPELLGGPSVFLFPPKPKDTLMISRTPEVTCVVVDVSHEDPEVKFNWYVDGVEVHNAKTKPREEQYNSTYRVVSVLTVLHQDWLNGKEYKCKVSNKALPAPIEKTISKAKGQPREPQVCTLPPSRDELTKNQVSLWCLVKGFYPSDIAVEWESNGQPENNYKTTPPVLDSDGSFFLYSKLTVDKSRWQQGNVFSCSVMHEALHNRYTQKSLSLSP light: DIVMTQSPLSLPVTPGEPASISCRSSQSLVHSNRNTYLHWYQQKPGQAPRLLIYKVSNRFSGVPDRFSGSGSGTDFTLKISRVEAEDVGVYYCGQGTQVPYTFGQGTKLEIKRTVAAPSVFIFPPSDEQLKSGTASVVCLLNNFYPREAKVQWKVDNALQSGNSQESVTEQDSKDSTYSLSSTLTLSKADYEKHKVYACEVTHQGLSSPVTKSFNRGEC | 0.88 |
